Data: article doi:10.1101/2023.05.06.539669 (bioRxiv, 2023)
“And” between values parts separate entries of the source, which are not always exact repeats. Equal values may be shown once. Where no end group is shown, it is not given here.

Target: bacterially expressed wild-type HRAS (human, UniProt P01112 1-189)
Assay: ITC

Sequence of bacterially expressed wild-type HRAS (P01112 whole entry): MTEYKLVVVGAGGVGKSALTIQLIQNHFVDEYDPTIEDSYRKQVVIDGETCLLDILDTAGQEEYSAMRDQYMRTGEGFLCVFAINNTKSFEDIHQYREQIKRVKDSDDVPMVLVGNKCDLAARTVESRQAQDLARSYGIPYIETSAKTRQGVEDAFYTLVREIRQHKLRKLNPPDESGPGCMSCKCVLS

YRLEKQSEPNV-NH2 [S-016-1034 (CDRI-S-016-1034), 11-mer peptide derived from the RAS-Binding-Domain of mSIN1]
Kd: 9.54 µM and 8.95 µM
